Reference: patent US20020193304

Target: CD87 (UniProt Q03405)
Sequence of UniProt Q03405 (Q03405 whole entry, looked up): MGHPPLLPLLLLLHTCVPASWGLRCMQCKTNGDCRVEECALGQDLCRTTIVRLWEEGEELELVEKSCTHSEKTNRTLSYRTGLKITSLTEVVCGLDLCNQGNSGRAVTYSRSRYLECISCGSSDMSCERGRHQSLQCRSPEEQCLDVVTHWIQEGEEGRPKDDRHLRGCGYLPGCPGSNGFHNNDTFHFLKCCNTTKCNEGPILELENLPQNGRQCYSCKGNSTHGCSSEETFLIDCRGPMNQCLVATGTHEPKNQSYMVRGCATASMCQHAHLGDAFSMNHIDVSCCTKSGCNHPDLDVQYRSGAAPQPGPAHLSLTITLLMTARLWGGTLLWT

Substance: high molecular weight urokinase-type plasminogen activator (HMW-uPA)
- anti-HIV activity (p17) of gel filtration fractions containing HMW-uPA (Nos. 15-18), co-culture assay: also were found to have anti-HIV activity (p17), thought that was weaker than ATF
